Tests used:
MMP-14 [1] = molecular target: T1, MMP-14 (Homo sapiens, UniProt P50281); test: Selection and phage ELISA screening of anti-MMP-14 Fabs; format: binding; conditions: Fab from FAB310 phage display library
Summary of the method: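 The FAB310 phage library was panned on biotinylated MMP-14, alone or complexed with bead-bound TIMP-2, at 500 nM and then 100 nM over three rounds. Phage was eluted with 2.5 μM TIMP-2, then 100 mM TEA. For ELISA, 95 clones per round were screened against 1 μg/ml biotinylated MMP-14 captured on streptavidin in TRIS/5 mM CaCl2, pH 7.5.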

MMP-14 [2] = molecular target: T1, MMP-14; test: IC50 for MMP-14 inhibition by Fabs and IgGs; format: biochemical; conditions: Fab
Procedure: MMP-14 binding proteins can be characterized in assays that measure their modulatory activity toward MMP-14 or fragments thereof in vitro or in vivo. For example, MMP-14 can be combined with a substrate such as Mca-Pro-Leu-Ala-Cys(Mob)-Trp-Ala-Arg-Dap(Dnp)-NH2 under assay conditions permitting cleavage by MMP-14. The assay is performed in the absence of the MMP-14 binding protein, and in the presence of increasing concentrations of the MMP-14 binding protein. The concentration of binding protein at which 50% of the MMP-14 activity (e.g., binding to the substrate) is inhibited is the IC50 value (Inhibitory Concentration 50%) or EC50 (Effective Concentration 50%) value for that binding protein.

[3] = tested on: Tumor Cells Expressing MMP-14 (HT-1080, LNCaP, MDA-MB-231, PC3); test: Binding of IgGs to tumor cells, immunocytochemistry and flow cytometry; format: cell-based, human; conditions: ICC versus flow cytometry
Procedure: The ability of twelve biotinylated-MMP-14 binding IgGs to bind to tumor cells expressing MMP-14 was evaluated using both immunocytochemistry (ICC) and flow cytometry. The cell lines tested were HT-1080 (a human fibrosarcoma cell line), LNCaP (human, prostate, carcinoma), MDA-MB-231 (human, breast, adenocarcinoma), or PC3 (Human prostatic cancer cells) cells. MMP-14 is expressed on HT-1080 cells (Cancer Res. (2005) 65(23):10959-69.). MMP-14 is expressed on PC-3 cells (Oncol Rep. (2006) 15(1):199-206). LNCaP express MMP-14 (Endocrinology (2003) 144(5):1656-1663) at a relatively low level. […] MMP-14 is expressed by MDA-MB-231 cells (Int J Cancer. (2005) 114(4):544-554.).
Cells (2×10^5) were cultivated on cell culture slides in complete medium. At confluency, cells were washed with PBS and fixed with 4% paraformaldehyde for 30 minutes at room temperature. Endogenous peroxidases were blocked with 3% hydrogen peroxide for 20 minutes. Nonspecific binding sites were blocked by incubation with 10% heat inactivated human serum 10% normal rabbit serum for 30 minutes at room temperature. Cells were then incubated with biotinylated or non-biotinylated MMP-14 binding proteins at 10 μg/ml for 2 hours at room temperature. […] Binding was detected with the substrate AEC+(25 minutes at room temperature in the dark). […]

MMP-16 [4] = molecular target: T2, MMP-16 (Homo sapiens, UniProt P51512); test: Cross-reactivity of anti-MMP-14 IgGs, enzymatic activity: MMP-16; format: biochemical; conditions: 1 μM anti-MMP-14 IgG
Procedure: (§1) The cross-reactivity of exemplary anti-MMP-14 IgGs and Fabs with other human MMPs and TACE (TNF-alpha converting enzyme) was examined. MMP and TACE enzymatic activity was monitored in the absence and presence of 1 μM anti-MMP-14 IgG antibody. Inhibition (Y) of activity ranged from approximately 50-80% of the reaction rate observed in the absence of antibody. “X” indicates no inhibition was observed. Cross-reactivity was not determined for MMP-17 because protein activity could not be detected.
(§2) For the studies summarized in Table 12, six anti-MMP-14 IgGs were selected for cross-reactivity testings: M0043-G02, M0040-A06, M0037-D01, M037-C09, M0038-F01, M0033-H07.

MMP-24 [5] = molecular target: T3, MMP-24 (Homo sapiens, UniProt Q9Y5R2); test: Cross-reactivity of anti-MMP-14 IgGs, enzymatic activity: MMP-24; format: biochemical; conditions: 1 μM anti-MMP-14 IgG
Procedure: as §1, §2

MMP-16 [6] = molecular target: T2, MMP-16; test: Cross-reactivity of Fabs and IgGs with MMP-16 (Example 8); format: biochemical; parameters: key to MMP-16 (cross-reactivity, class symbol): X: Does not inhibit MMP-16 at [I] = 100 nM level; conditions: 5 nM MMP16, 30 minutes at 30° C., 10 μM substrate
Procedure: For the studies summarized in Tables 13 and 14, 100 nM anti-MMP-14 Fab/IgG were incubated with 5 nM MMP16 for 30 minutes at 30° C., 10 μM of substrate was added, and the MMP-16 activity was measured.

MMP-16 [7] = molecular target: T2, MMP-16; test: Cross-reactivity of Fabs with MMP-16 (Example 9); format: biochemical; parameters: key: X: Do not inhibit MMP-16 or MMP-24 at [I] = 100 nM level; Y: partially inhibit at [I] = 100 nM level; conditions: Fab, 100 nM final inhibitor concentration, 5 nM MMP-16
Procedure: (§3) For the studies summarized in Table 15, 1 μM of anti-MMP-14 Fab/IgG (100 nM final inhibitor concentration) were incubated with 5 nM of MMP-16 or 5 nM of MMP-24 for 30 minutes at 30° C., 10 μM of substrate was added, and the MMP-16 activity was measured.

MMP-24 [8] = molecular target: T3, MMP-24; test: Cross-reactivity of Fabs with MMP-24 (Example 9); format: biochemical; parameters: key to MMP-24 (cross-reactivity, class symbol): X: Do not inhibit MMP-16 or MMP-24 at [I] = 100 nM level; Y: partially inhibit at [I] = 100 nM level; conditions: Fab, 100 nM final inhibitor concentration; 5 nM MMP-24
Procedure: as §3

[9] = tested on: activation of pro-MMP-2 by MMP-14 in PMA-activated HT-1080 cells; test: Gelatin zymogram, pro-MMP-2 activation in HT-1080 cells; format: cell-based, human; conditions: gelatin zymography of conditioned media after 3 days; antibodies 10 μg/ml, GM6001 10 μM
Procedure: The ability of anti-MMP-14 IgGs to inhibit the activation of pro-MMP-2 by MMP-14 was examined by gelatin zymogram experiments performed with PMA-activated HT-1080 cells. M0033-H07 and M0038-F01 were tested for their ability to inhibit MMP-14 in this assay. HT1080 cells (well-known to express MMP-14 and MMP-2) were seeded at 5×10^5 cells/well at Day 0. […] HT-1080 cells cultured in the presence of 20 ng/ml of PMA were used as a positive control.
After 3 days of incubation, conditioned media were collected and gelatinolytic activities were analyzed by gelatin zymography as described previously (Maquoi et al, J Biol Chem 2000; 275:11368-78). When HT-1080 cells are activated with a phorbol ester, pro-MMP-2 is activated into MMP-2 (lane 1).

T2 sequence (P51512 120-607): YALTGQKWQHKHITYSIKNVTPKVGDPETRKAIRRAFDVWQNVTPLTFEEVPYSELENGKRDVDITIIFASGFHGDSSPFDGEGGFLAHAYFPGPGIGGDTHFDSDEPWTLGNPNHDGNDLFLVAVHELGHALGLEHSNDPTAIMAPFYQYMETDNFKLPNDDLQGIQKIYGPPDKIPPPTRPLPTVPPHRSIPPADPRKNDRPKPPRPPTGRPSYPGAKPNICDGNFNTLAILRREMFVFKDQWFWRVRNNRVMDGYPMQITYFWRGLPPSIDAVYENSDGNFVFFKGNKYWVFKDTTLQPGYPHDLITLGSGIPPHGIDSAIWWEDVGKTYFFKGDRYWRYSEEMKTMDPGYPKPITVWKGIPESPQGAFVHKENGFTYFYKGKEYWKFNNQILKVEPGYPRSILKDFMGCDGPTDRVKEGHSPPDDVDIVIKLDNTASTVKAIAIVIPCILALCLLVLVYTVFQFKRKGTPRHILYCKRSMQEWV
T3 sequence (Q9Y5R2 156-645): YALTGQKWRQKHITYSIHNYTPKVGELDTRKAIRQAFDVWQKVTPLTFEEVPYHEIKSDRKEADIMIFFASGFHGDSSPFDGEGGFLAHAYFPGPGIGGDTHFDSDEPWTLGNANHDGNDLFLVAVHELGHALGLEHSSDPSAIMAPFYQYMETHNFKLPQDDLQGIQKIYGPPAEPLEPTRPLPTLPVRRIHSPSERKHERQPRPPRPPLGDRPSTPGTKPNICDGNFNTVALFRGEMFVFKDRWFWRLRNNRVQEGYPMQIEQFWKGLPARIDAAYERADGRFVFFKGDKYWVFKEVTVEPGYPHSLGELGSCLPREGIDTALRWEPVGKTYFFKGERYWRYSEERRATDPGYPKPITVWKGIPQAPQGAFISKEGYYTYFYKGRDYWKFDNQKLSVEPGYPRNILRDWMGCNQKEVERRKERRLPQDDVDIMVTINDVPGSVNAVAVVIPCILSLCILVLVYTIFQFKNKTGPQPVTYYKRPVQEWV

Molecule	bind to human MMP-14 (MMP-14 [1])	bind to and inhibit human MMP-14 (MMP-14 [2])	Staining, remark on method [3]	Cross reactivity: inhibition of MMP-16 activity (MMP-16 [4])	Cross reactivity: inhibition of MMP-24 activity (MMP-24 [5])	MMP-16 (cross-reactivity, class symbol) (MMP-16 [6]; Fab 100 nM)	MMP-16 (cross-reactivity, class symbol) (MMP-16 [6]; IgG 100 nM)	MMP-16 (cross-reactivity, class symbol) (MMP-16 [7])	MMP-24 inhibition (MMP-24 [8])	MMP-24 (cross-reactivity, class symbol) (MMP-24 [8])	pro-MMP-2 activation by MMP-14 [9]	pro-MMP-9 expression [9]
M0031-F01: human antibody (Fab, IgG) that binds and inhibits MMP-14; HC SEQ ID NO: 146, LC SEQ ID NO: 147 (antibody, V domains shown, Synthetically generated peptide) VH: EVQLLESGGGLVQPGGSLRLSCAASGFTFSTYEMHWVRQAPGKGLEWVSSIYSSGGWTGYADSVKGRFTISRDNSKNTLYLQMNSLRAEDTAVYYCARSQQYYDFSSRYYGMDVWGQGTTVTVSS VL: QSELTQPPSVSGTPGQRVTISCSGTSANIGRNAVHWYQQLPGTAPKLLIHSNNRRPSGVPDRFSGSKSGTSASLAISGLQSEDEADYYCAAWENSLNAFYVFGTGTKVTVL	bind to human MMP-14	bind to and inhibit human MMP-14	(only positive in ICC)	–	–	–	–	–	–	–	–	–
M0037-D01: human antibody (Fab, IgG) that binds and inhibits MMP-14; HC SEQ ID NO: 152, LC SEQ ID NO: 153 (antibody, V domains shown, Synthetically generated peptide) VH: EVQLLESGGGLVQPGGSLRLSCAASGFTFSMYMMIWVRQAPGKGLEWVSSIYPSGGNTMYADSVKGRFTISRDNSKNTLYLQMNSLRAEDTAVYYCATGVLRYFDWDAGSGMDVWGQGTTVTVSSLC VL: QDIQMTQSPSSLSASVGDRVTITCRASQGIRNDLGWYQQKPGKAPKRLIYVASSLQSGVPSRFSGSGSGTEFTLTISSLQPEDFATYYCLQHNSYPWTFGQGTKVEIK	bind to human MMP-14	bind to and inhibit human MMP-14	–	Y (Inhibition (Y) of activity ranged from approximately 50-80% of the reaction rate observed in the absence of antibody)	Y (Inhibition (Y) of activity ranged from approximately 50-80% of the reaction rate observed in the absence of antibody)	X	X	X	Y 71% inhibition	–	–	–
M0037-C09: human antibody (Fab, IgG) that binds and inhibits MMP-14; HC SEQ ID NO: 150, LC SEQ ID NO: 151 (antibody, V domains shown, Synthetically generated peptide) VH: EVQLLESGGGLVQPGGSLRLSCAASGFTFSHYEMFWVRQAPGKGLEWVSSISPSGGQTHYADSVKGRFTISRDNSKNTLYLQMNSLRAEDTAVYYCATDRTYYDFWSGYGPLWYWGQGTLVTVSS VL: QDIQMTQSPLSLPVTLGESASVSCRSSQSLLHENGHNYLDWYLQKPGQSPQLLIYLGSNRASGVPDRFSGSGSGTDFTLKISRVEAEDVGVYYCMQSLKTPPTFGPGTKVEIK	bind to human MMP-14	bind to and inhibit human MMP-14	–	Y (Inhibition (Y) of activity ranged from approximately 50-80% of the reaction rate observed in the absence of antibody)	Y (Inhibition (Y) of activity ranged from approximately 50-80% of the reaction rate observed in the absence of antibody)	X	X	X	Y 72% inhibition	–	–	–
M0033-H07: human antibody (Fab, IgG) that binds and inhibits MMP-14; HC SEQ ID NO: 148, LC SEQ ID NO: 149 (antibody, V domains shown, Synthetically generated peptide) VH: EVQLLESGGGLVQPGGSLRLSCAASGFTFSVYGMVWVRQAPGKGLEWVSVISSSGGSTWYADSVKGRFTISRDNSKNTLYLQMNSLRAEDTALYYCARPFSRRYGVFDYWGQGTLVTVSS VL: QDIQMTQSPSSLSASVGDRVTITCRASQGIRNFLAWYQQKPGKVPKLLVFGASALQSGVPSRFSGSGSGTDFTLTISGLQPEDVATYYCQKYNGVPLTFGGGTKVEIK	bind to human MMP-14	bind to and inhibit human MMP-14	–	Y (Inhibition (Y) of activity ranged from approximately 50-80% of the reaction rate observed in the absence of antibody)	Y (Inhibition (Y) of activity ranged from approximately 50-80% of the reaction rate observed in the absence of antibody)	X	X	X	–	X	partly inhibited	No stimulation
M0031-C02: human antibody (Fab, IgG) that binds and inhibits MMP-14; HC SEQ ID NO: 144, LC SEQ ID NO: 145 (antibody, V domains shown, Synthetically generated peptide) VH: EVQLLESGGGLVQPGGSLRLSCAASGFTFSPYPMGWVRQAPGKGLEWVSSIVSSGGLTLYADSVKGRFTISRDNSKNTLYLQMNSLRAEDTAVYYCARGGRLYDILTGQGAPFDYWGQGTLVTVSS VL: QDIQMTQSPLSLPVTPGEPASISCRSSQSLLHSNGYYYLDWYLQKPGQSPQLLIYLGSYRASGVPDRFSGSGSGTDFTLKISSVEAEDVGVYYCMQALQTPLTFGGGTRVDIK	bind to human MMP-14	bind to and inhibit human MMP-14	–	–	–	X	X	X	Y 54% inhibition	–	–	–

From patent US8106168B2, “Metalloproteinase binding proteins” (Dyax Corp., priority 2005, dated 2012)
